Where no end group is shown, it is not given here.
B1: PD-1 (Y) peptide (peptide)
peptide: NWNRLSPSNQTEKQAAPHHHHCGAISLHPKAKIEE
modifications: not fully specified; also: FITC label in competition assay, place not given here
notes: also called PDIY; PD-1 like peptide
B2: PD-1 (Lin) peptide (peptide)
peptide: NWNRLSPSNQTEKQAACGAISLHPKAKIEESPGHHHH
modifications: also: FITC label in competition assay, place not given here, bound via His tag to NTA-Cu on IONPs or NTA-Ni beads
notes: Tested as FITC-labelled free peptide, as IONP conjugate and on NTA-Ni beads; also called PD-1 like peptide; PD-1 Lin-IONP (when conjugated to iron oxide nanoparticles)

Molecular target: T1, mouse PD-L1 (mouse, UniProt Q9EP73 19-290)
T1 construct: whole, on cells; Endogenous protein of mouse tumor cell lines; also called PD-L1 on mouse pancreatic cancer KC, Panc02 and KPC cells
T1 sequence (Q9EP73 19-290): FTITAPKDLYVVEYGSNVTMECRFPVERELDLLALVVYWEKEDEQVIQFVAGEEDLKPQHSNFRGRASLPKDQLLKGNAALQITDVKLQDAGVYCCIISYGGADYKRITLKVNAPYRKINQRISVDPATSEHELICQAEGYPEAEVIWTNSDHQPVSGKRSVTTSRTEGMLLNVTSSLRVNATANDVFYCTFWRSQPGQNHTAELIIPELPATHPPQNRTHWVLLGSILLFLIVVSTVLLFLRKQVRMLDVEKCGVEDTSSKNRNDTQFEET
Assay: peptide-IONP conjugates on KC and Panc02 cells, Prussian blue staining

Binder | binding result
B1 | binds
B2 | binds
